The text below walks through data of patent US20250243273A1 (FOURTH MILITARY MEDICAL UNIVERSITY, published 2025).

This assay deals with T1, human BASIGIN, native, on human erythrocytes and in human tumour tissue (human, UniProt P35613 22-385).
T1 sequence (looked up): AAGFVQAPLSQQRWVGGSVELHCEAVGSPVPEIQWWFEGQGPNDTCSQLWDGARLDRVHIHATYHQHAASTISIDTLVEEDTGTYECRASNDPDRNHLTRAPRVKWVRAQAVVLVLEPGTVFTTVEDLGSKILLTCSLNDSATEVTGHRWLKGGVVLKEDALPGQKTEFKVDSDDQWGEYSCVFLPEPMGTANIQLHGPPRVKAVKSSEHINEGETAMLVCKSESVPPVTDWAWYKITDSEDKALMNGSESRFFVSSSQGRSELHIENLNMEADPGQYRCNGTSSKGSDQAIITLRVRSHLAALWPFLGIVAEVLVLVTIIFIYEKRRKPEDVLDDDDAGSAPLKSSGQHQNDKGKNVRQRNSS
The assay is described as follows: cell-based or functional assay.

B1: humanized antibody HP6H8-1 (antibody, V domains shown)
VH: EVQLVESGGGLVQPGGSLRLSCAASGFTFSNFWMNWVRQAPGKGLEWVSEIRLKSNNYATHYAESVKGRFTISRDDSKNTLYLQMNSLKTEDTAVYYCTSYDYEYWGQGTLVTVSA
VL: DIQMTQSPSTLSASVGDRVTLSCKASENVGTYVSWYQQKPGKAPKLLIYGASNRYTGVPSRFTGSGSGTDFTLTISSLQPEDFATYYCGQSYSYPFTFGSGTKLEIK
In the case of B1, the “IC50, in vitro inhibition of Plasmodium falciparum strain 3D7 invasion of human erythrocytes (parasite rate after 72 hrs)” value worked out at 20 µg/mL; the “IC50, in vitro inhibition of Plasmodium falciparum strain Dd2 invasion of human erythrocytes (parasite rate after 72 hrs)” value came to 40 µg/mL; the “IC50, in vitro inhibition of Plasmodium falciparum strain FCC1 invasion of human erythrocytes (parasite rate after 72 hrs)” value was determined as 40 µg/mL; the “IC50, in vitro inhibition of Plasmodium falciparum strain Nf54 invasion of human erythrocytes (parasite rate after 72 hrs)” value was determined as 50 µg/mL.
